The record followed here is PMC1072803.

This data set deals with T1, CREB-HZ (CREB-H bZIP region) (Mus musculus, UniProt Q91XE9 206-318).
T1 sequence: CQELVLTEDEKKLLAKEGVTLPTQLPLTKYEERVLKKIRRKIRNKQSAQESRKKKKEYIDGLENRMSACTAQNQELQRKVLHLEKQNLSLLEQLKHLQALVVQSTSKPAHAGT
The data set can be described thus: competition.

B1: box B, alcohol dehydrogenase-1 gene (dsDNA)
DNA 1: GATCTTGTACACGTAATCGTAGGATCC
DNA 2: GGATCCTACGATTACGTGTACAAGATC
For B1, the binding result is on record as “binds”.
